Experimental data reported in US20240209078A1 (Amgen, published 2024).
Changes are numbered by the printed parent chain. Numbers in names are those of the source. Where two headings read alike, the source gives them in different places.

T1: mouse MSLN protein (mouse, UniProt Q61468 298-600)
T1 construct: whole, on cells; also called full-length mouse MSLN
T1 sequence (looked up): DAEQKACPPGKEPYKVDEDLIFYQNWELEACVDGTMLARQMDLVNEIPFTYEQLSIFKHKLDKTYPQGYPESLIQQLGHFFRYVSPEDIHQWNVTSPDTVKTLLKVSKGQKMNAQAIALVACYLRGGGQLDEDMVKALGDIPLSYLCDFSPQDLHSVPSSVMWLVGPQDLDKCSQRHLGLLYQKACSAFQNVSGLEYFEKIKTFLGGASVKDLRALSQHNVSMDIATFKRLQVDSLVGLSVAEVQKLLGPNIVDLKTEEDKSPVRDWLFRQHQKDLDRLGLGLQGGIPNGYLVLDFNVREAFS

B1: CH3 15-E11 VAG CC×I2L×G4×scFc×MS 15-B12 CC×I2L clipopt ID (SEQ ID NO 434) (bispecific antibody)
chain: QVQLVQSGAEVKKPGASVKVSCKASGYTFTNYWMNWVRQAPGQCLEWMGNIAYGVAGTNYNQKFQGRVTMTVDTSSSTAYMELSRLRSDDTAVYYCATRYFYVMDYWGQGTLVTVSSGGGGQGGGGQGGGGQDIQMTQSPSSLSASVGDRVTITCRASQDISNYLNWYQQKPGKVPKLLIYYTSRLHSGVPSRFSGSGSGTDFTLTISSLQPEDVATYYCVQYAQFPLTFGCGTKVEIKSGGGGQEVQLVESGGGLVQPGGSLKLSCAASGFTFNKYAMNWVRQAPGKGMEWVARIRSKYNNYATYYADAVKDRFTISRDDSKNTLYLQMNNLKTEDTAVYYCVRAGNFGSSYISYFAYWGQGTLVTVSSGGGGQGGGGQGGGGQQTVVTQEPSLTVSPGGTVTITCGSSTGAVTSGNYPNWIQKKPGQAPRGLIGGTKFLAPGTPARFSGSLEGGKAALTLSGVQPEDEAEYYCVLYYSNRWVFGSGTKLTVLGGGGCPPCPAPELLGGPSVFLFPPKPKDTLMISRTPEVTCVVVDVSHEEPEVKFNWYVDGVEVHNAKTKPCEEQYGSTYRCVSVLTVLHQDWLNGKEYKCKVSNKALPAPIEKTISKAKGQPREPQVYTLPPSREEMTKNQVSLTCLVKGFYPSDIAVEWESNGQPENNYKTTPPVLDSDGSFFLYSKLTVDKSRWQQGNVFSCSVMHEALHNHYTQKSLSLSPGKGGGGQGGGGQGGGGQGGGGQGGGGQGGGGQCPPCPAPELLGGPSVFLFPPKPKDTLMISRTPEVTCVVVDVSHEEPEVKFNWYVDGVEVHNAKTKPCEEQYGSTYRCVSVLTVLHQDWLNGKEYKCKVSNKALPAPIEKTISKAKGQPREPQVYTLPPSREEMTKNQVSLTCLVKGFYPSDIAVEWESNGQPENNYKTTPPVLDSDGSFFLYSKLTVDKSRWQQGNVFSCSVMHEALHNHYTQKSLSLSPGKGGGGQVQLQESGPGLVKPSETLSLTCTVSGGSISSSSYFWGWIRQPPGKCLEWIGNIYYSGSSNYNPSLKSRVTISVDTSKNQFSLKLSSVTAADTAVYYCARLPRGDRDAFDIWGQGTMVTVSSGGGGQGGGGQGGGGQDIVMTQSPSSLSASVGDRVTITCRASQGISNYLAWYQQKPGKVPKLLIYAASTLQSGVPSRFSGSGSGTDFTLTISSLQPEDFATYYCQQSYSTPFTFGCGTKVEIKSGGGGQEVQLVESGGGLVQPGGSLKLSCAASGFTFNKYAMNWVRQAPGKGMEWVARIRSKYNNYATYYADAVKDRFTISRDDSKNTLYLQMNNLKTEDTAVYYCVRAGNFGSSYISYFAYWGQGTLVTVSSGGGGQGGGGQGGGGQQTVVTQEPSLTVSPGGTVTITCGSSTGAVTSGNYPNWIQKKPGQAPRGLIGGTKFLAPGTPARFSGSLEGGKAALTLSGVQPEDEAEYYCVLYYSNRWVFGSGTKLTVL
notes: single-chain multitargeting CDH3 x CD3 - scFc - MSLN x CD3 engager; also called K3T
B2: CH3 15-E11 CC×I2L×G4×scFc×G4×MS 15-B12 CC×I2L_GQ (SEQ ID NO 251) (bispecific antibody)
chain: B1 chain with A56K
notes: single-chain multitargeting engager; also called F5Q

Experiments:
[1] = biological target: T2, human CDH3 (Cadherin-3, P-Cadherin) (human, UniProt P22223 108-829); experiment: cell-based or functional assay
[2] = biological target: T2, human CDH3 (Cadherin-3, P-Cadherin); experiment: cell-based or functional assay; remark: listed apart in the source
[3] = biological target: T1, mouse MSLN protein; experiment: flow cytometry on transfected CHO cells
[4] = biological target: T2, human CDH3 (Cadherin-3, P-Cadherin); experiment: cell-based or functional assay; remark: listed apart in the source
[5] = biological target: T2, human CDH3 (Cadherin-3, P-Cadherin); experiment: cell-based or functional assay; remark: listed apart in the source
[6] = biological target: T2, human CDH3 (Cadherin-3, P-Cadherin); experiment: cell-based or functional assay; remark: listed apart in the source
[7] = biological target: T2, human CDH3 (Cadherin-3, P-Cadherin); experiment: cell-based or functional assay; remark: listed apart in the source
[8] = biological target: T2, human CDH3 (Cadherin-3, P-Cadherin); experiment: cell-based or functional assay; remark: listed apart in the source

Row | Binder | cytotoxicity EC50, GSU KO MSLN cells [1] | cytotoxicity EC50, HCT 116 KO MSLN cells [2] | binding result [3] | cytotoxicity EC50, GSU KO MSLN cells [4] | cytotoxicity EC50, HCT 116 KO MSLN cells [5] | cytotoxicity EC50, E:T ratio 1:1, GSU KO MSLN cells [6] | cytotoxicity EC50, E:T ratio 1:2, GSU KO MSLN cells [6] | cytotoxicity EC50, E:T ratio 10:1, GSU KO MSLN cells [6] | cytotoxicity EC50, GSU KO MSLN cells [7] | cytotoxicity EC50, HCT 116 KO MSLN cells [8]
1 | B1 | 245 pM | 1.5 pM | no binding (tested: 5 µg/mL) |  |  |  |  |  |  | 
2 | B2 |  |  | no binding (tested: 5 µg/mL) | 3240 pM | 8.7 pM | 322 pM | 341 pM | 98 pM | 3240 pM | 8.7 pM
